Data on 1 substance can be found in publication PMC6826206.

The series deals with hcGAScat-WT (human). The experiment in a line: fluorescence anisotropy. To be noted: reference; EMSA: 25 mM Tris-HCl pH 7.5, 1 mM DTT, 100 ug/ml BSA, 1 mM MgCl2, 45 mM KCl, 37 C 10 min, 7% PAGE in TAE at 4 C; FA: 5-10 nM FAM-dsDNA, Hill fit, buffer not …. In general terms: In fluorescence polarisation assays a small probe gives low polarisation when free and higher when bound to something large.

dsDNA24 displayed a binding signal (relative to WT) of 1.
